From patent publication US12365732 (23ANDME, dated 2025)

B1: 10G1 (clone 10G1.3G8), purified hybridoma antibody (antibody, V domains shown)
VH: QIQLVQSGPELKKPGETVKISCKASGYPFTTYGMSWVKQAPGKGLKWMGWINTDSGVPTYADDFKGRFAFSLETSANTAYLQINSLKNEDAATYFCARNIYYGWGNFDYWGQGTILTVSS
VL: DILMTQSPTTLSVTPGETVSLSCRASQDIYRNLHWYQQKSQGTPRLLIKHASDSISGIPSRFTGSGSGTDFTLSINSVKPEDEGIYYCLQGYSMPYTFGGGTKLEIK
notes: murine hybridoma IgG
B2: mAb1.v7 Fab (Fab, V domains shown)
VH: EVQLVQSGAEVKKPGASVKVSCKASGFTFTNNWMHWVRQAPGQGLEWIGMIHPNSGITNINEKFKNRVTMTTDTSTSTAYMELRSLRSEDTAVYYCRSDGTYEGYFDYWGQGTLVTVSS
VL: DIQLTQSPSSLSASVGDRVTITCKASQNVGTAIVWYQQKPGKAPKVLIYSASTRYTGVPSRFSGSGSGTDFTLTISSLQPEDFATYYCQQYSSSPLTFGQGTKVEIK

Key:
[1] = target: T1, hu-CD226 on Expi293 cells (human, UniProt Q15762 19-336); assay: FACS, CD226-transfected Expi293 cells
T1 sequence: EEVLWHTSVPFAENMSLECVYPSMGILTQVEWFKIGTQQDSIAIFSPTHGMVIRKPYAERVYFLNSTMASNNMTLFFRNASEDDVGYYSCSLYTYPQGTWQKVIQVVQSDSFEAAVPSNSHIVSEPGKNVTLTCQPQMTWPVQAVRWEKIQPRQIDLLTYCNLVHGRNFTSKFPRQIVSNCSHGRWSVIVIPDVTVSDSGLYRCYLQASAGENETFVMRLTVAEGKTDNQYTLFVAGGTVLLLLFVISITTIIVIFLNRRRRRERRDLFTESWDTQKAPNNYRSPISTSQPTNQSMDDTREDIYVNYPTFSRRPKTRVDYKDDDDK
Procedure: In order to assess the generated antibodies for secondary binding to CD226, sequences encoding human CD226 ("hu-CD226") (SEQ ID NO: 482) and cyno CD226 ("cy-CD226") (SEQ ID NO: 483) (see Table 26 and Sequence Listing) were each cloned into pcDNA3.1 expression vector and Expi293 cells were separately transfected with plasmid containing either the hu-CD226 or cy-CD226 coding sequence. Starting concentrations of 1 μM and corresponding 3X serial dilutions of each antibody, NGS8, 10G1, and MABT398 (CD226 positive control, EMD Millipore, Burlington, MA, USA), were prepared for staining. Secondary antibodies employed included goat anti-mouse F(ab)2-PE (Invitrogen, Carlsbad, CA, USA) and goat anti-human F(ab)2-PE (Jackson ImmunoResearch, West Grove, PA, USA).
Samples, each containing one million transfected cells, were stained with primary antibody for 1 hr and secondary antibody for 30 min at 4° C. with agitation. Stained cells were washed in FACS buffer (1% BSA in PBS), fixed in 4% freshly prepared paraformaldehyde, and analyzed by flow cytometry. Ten thousand events were collected for each sample and curves, showing the fold change in CD226 binding, were separately plotted for hu-CD226 (FIG. 12A) and cy-CD226 (FIG. 12B) expressing cells.

hu-CD96 Fc = target: T2, hu-CD96 Fc (human, biotinylated in Table 16); assay: SPR (Biacore), Fab
T2 construct: also called biotinylated hu-CD96-Fc

[2] = target: T3, hu-CD96 (soluble, isoform 2 extracellular domain) (human, UniProt P40200 22-516, biotinylated in Octet and blocking ELISA); assay: CD155 blocking ELISA
T3 construct: the assays name only hu-CD96; also called hCD96; biotinylated hu-CD96
T3 sequence: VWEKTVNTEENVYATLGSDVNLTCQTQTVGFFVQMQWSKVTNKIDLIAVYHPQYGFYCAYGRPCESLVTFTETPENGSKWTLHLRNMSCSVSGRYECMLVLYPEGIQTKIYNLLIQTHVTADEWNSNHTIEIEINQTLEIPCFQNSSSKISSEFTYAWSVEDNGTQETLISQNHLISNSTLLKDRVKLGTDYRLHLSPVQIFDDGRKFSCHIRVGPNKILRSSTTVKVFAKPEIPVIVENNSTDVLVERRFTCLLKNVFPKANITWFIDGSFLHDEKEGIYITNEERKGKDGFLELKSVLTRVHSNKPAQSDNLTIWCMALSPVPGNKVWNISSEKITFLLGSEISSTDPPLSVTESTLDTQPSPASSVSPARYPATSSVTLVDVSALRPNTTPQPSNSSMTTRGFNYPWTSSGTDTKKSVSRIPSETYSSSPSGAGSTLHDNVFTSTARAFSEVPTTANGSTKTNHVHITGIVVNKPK

[3] = target: T3, hu-CD96 (soluble, isoform 2 …); assay: BLI (Octet), biotin-CD96 on SA, Fab analyte

| Binder | EC50 [1] | Kd (hu-CD96 Fc) | koff (hu-CD96 Fc) | kon (hu-CD96 Fc) | apparent IC50 (pooled screen) [2] | apparent Kd (pooled screen) [3] |
| --- | --- | --- | --- | --- | --- | --- |
| B1 | 232 nM |  |  |  |  |  |
| B2 |  | 44.6 nM | 0.000817 s⁻¹ | 18300 M⁻¹ s⁻¹ | 0.74 nM | 76 nM |
